The source of these data is publication PMC9427764.

A short description of series [1]: Azi photo-cross-linking in HEK293T, anti-Flag blot. To be noted: glycan lost; control: PD-L1-Azi without NQ mutations.
Series [2] is described as follows: Azi photo-cross-linking, immunoblot. The settings on record: glycan lost; control: untreated PD-L1-V76Azi cells. A general note: Immunoblotting shows a protein as a band on a membrane.

PD-L1: 4NQ: the oligomerisation entry in series [1] is given as “decreases”.

In the case of PD-L1: 5 µM tunicamycin, 24 h, the oligomerisation result in series [2] was “decreases”.
